The values that follow come from US20100233678.

Data set [1] has as its system IgG, polyclonal (Mus musculus). The experiment in a line: FP. The settings on record: 10 nM DNA, 1 uM IgG, PBS pH 7.0, 45 min.
Data set [2] concerns IgA, monoclonal (Homo sapiens). The experiment in a line: filter. The settings on record: 37.5 mM NaCl, 3.75 mM sodium citrate, pH 6.0.
The subject of data set [3] is IgG Fab2 fragment (Homo sapiens). Kind of data set: filter. Conditions: 37.5 mM NaCl, 3.75 mM sodium citrate, pH 6.0.
The subject of data set [4] is IgG Fab2 fragment (Mus musculus). Kind of data set: filter. Conditions: 37.5 mM NaCl, 3.75 mM sodium citrate, pH 6.0.
For data set [5], the system named is IgG Fc fragment (Homo sapiens). Kind of data set: filter. The settings on record: 37.5 mM NaCl, 3.75 mM sodium citrate, pH 6.0.
For data set [6], the system named is IgG, polyclonal (ChromPure) (Homo sapiens). Kind of data set: filter. Conditions: ultrafiltration, 41 mM Na+, pH 6.
The test system of data set [7] is IgG, polyclonal (Mus musculus). Kind of data set: filter. Conditions: 37.5 mM NaCl, 3.75 mM sodium citrate, pH 6.0.
For data set [8], the system named is IgG1, monoclonal (Homo sapiens). Kind of data set: filter. The settings on record: 37.5 mM NaCl, 3.75 mM sodium citrate, pH 6.0.
For data set [9], the system named is IgG2, monoclonal (Homo sapiens). The experiment in a line: filter. Conditions: 37.5 mM NaCl, 3.75 mM sodium citrate, pH 6.0.
The test system of data set [10] is IgG3, monoclonal (Homo sapiens). The experiment in a line: filter. The settings on record: 37.5 mM NaCl, 3.75 mM Na citrate, pH 6.0.
In data set [11] the test system is IgG4, monoclonal (Homo sapiens). The experiment in a line: filter. Conditions: 37.5 mM NaCl, 3.75 mM Na citrate, pH 6.0.
Data set [12] deals with IgM, monoclonal (Homo sapiens). The experiment in a line: filter. The settings on record: 37.5 mM NaCl, 3.75 mM sodium citrate, pH 6.0.
Setting [13] is: hexaethylene glycol (iSp18) linkers as both loops.

With “AGGCCGCGCCCCCCGCGCCCACCGCCCCGGTGCC [RAD29]”, the binding signal (% polarization change) in data set [1] stood at 19.

As to CCCTCCCTGGGCTTTTTTTGATTTTTCTTAA [RAD4], the Ka (log10 Ka (M-1)) in [2] is 7.66; in data set [3], 6.89; in data set [4], 7.09; in [5], 5.26; in data set [6] (pH 5 8.48, pH 7 7.10, pH 8 7.02) it was 8.13; in data set [7], 7.71. The Ka (log10 Ka (M-1)) was determined as 7.52 in [8], 7.67 in [9] and 6.89 in data set [12]. For the same sequence, the Ka in data set [10] (control oligo) is 6.66 log10 M-1; in data set [11] (control oligo) it was 7.13 log10 M-1.

For the sequence CCTCTTCCTTCTCCGGAGAAG [RAD1], the Ka in data set [10] (two hexaethylene glycol (iSp18) linkers as loops [iSp18 (hexaethylene glycol) linkers left out between 7-8 and 14-15], ultrafiltration, Picogreen) is 6.17 log10 M-1; in data set [11] (two hexaethylene glycol (iSp18) linkers as loops [iSp18 (hexaethylene glycol) linkers left out between 7-8 and 14-15]), 6.37 log10 M-1.

On to CCTCTTCHEGCTTCTCCHEGGGAGAAG [RAD1], for which the Ka (log10 Ka (M-1)) in data set [2] (setting [13]) was 6.37; in data set [3] (setting [13]), 5.82; in data set [4] (setting [13]), 6.38; in [5] (setting [13]), 5.8; in data set [6] (hexaethylene glycol (iSp18) linkers as both loops, pH 5 7.45, pH 7 6.49, pH 8 6.30), 6.51; in [7] (setting [13]), 6.6. Moreover, the Ka (log10 Ka (M-1)) was 6.38 in data set [8] (setting [13]), 6.51 in data set [9] (setting [13]) and 6.32 in data set [12] (setting [13]).

Regarding CCTCTTCTTTTTCTTCTC [RAD20], the Ka (log10 Ka (M-1)) is 7.53 in data set [2]; 6.9 in data set [3]; 7.41 in data set [4]; 5.96 in data set [5]; 7.98 in data set [6] (pH 5 8.11, pH 7 7.40, pH 8 6.64); 8.3 in [7]. Besides, the Ka (log10 Ka (M-1)) in data set [8] amounted to 7.34; in data set [9], 7.85; in data set [12], 7.02. For the same sequence, the Ka in [10] was 6.84 log10 M-1; in data set [11], 7.67 log10 M-1.

Regarding CCTCTTCTTTTTCTTCTCCTTTTTGGAGAAG [RAD2], the Ka (log10 Ka (M-1)) in data set [2] amounted to 6.9; in [3], 6.45; in data set [4], 6.71; in data set [5], 5.86; in data set [6] (pH 5 8.74, pH 7 6.96, pH 8 6.57), 7.61; in [7] it was 7.49. The Ka (log10 Ka (M-1)) amounted to 7.04 in data set [8], 7.06 in data set [9] and 6.73 in [12]. Moreover, the Ka is 6.64 log10 M-1 in data set [10] and 7.08 log10 M-1 in data set [11].

Turning to CCTTCCTTTGGAAGGTTG [RAD23], the Ka (log10 Ka (M-1)) in data set [2] worked out at 6.38; in [3], 5.64; in data set [4], 6.33; in [6] (pH 5 7.37, pH 7 6.31, pH 8 6.21), 6.88; in [7], 6.77; in [8], 6.14. Further, the Ka (log10 Ka (M-1)) came to 6.86 in data set [9] and 6.08 in [12]. Besides, the Ka in data set [10] is 5.62 log10 M-1; in [11] it was 5.97 log10 M-1.

Take CGCGAAAACGCG [RAD22]: the Ka (log10 Ka (M-1)) in data set [6] (pH 5 5.95, pH 7 6.04, pH 8 5.97) is 6.25.

Consider CTCTCTCTTTTTCTCTCTCTTTTTGAGAGAG [RAD9], for which the Ka (log10 Ka (M-1)) in data set [2] was 6.95; in data set [3], 6.44; in data set [4], 6.75; in [5] it was 5.87; in data set [6] (pH 5 8.67, pH 7 7.04, pH 8 6.94), 7.74; in data set [7], 7.46. Moreover, the Ka (log10 Ka (M-1)) stood at 7.05 in data set [8], 7.05 in [9] and 6.79 in data set [12]. The Ka in data set [10] is 6.62 log10 M-1; in [11] it was 7.06 log10 M-1.

Consider GAGAGAGTTTTTGAGAGAGTTTTTCTCTCTC [RAD7], for which the Ka (log10 Ka (M-1)) in data set [2] came out at 7.33; in data set [3], 6.68; in data set [4] it was 6.97; in data set [5] it was 5.99; in data set [6] (pH 5 8.51, pH 7 6.97, pH 8 6.79) it was 8.04; in [7] it was 7.69. The Ka (log10 Ka (M-1)) was 7.3 in data set [8], 7.25 in data set [9] and 6.89 in data set [12]. For the same sequence, the Ka in [10] is 6.74 log10 M-1; in [11], 7.16 log10 M-1.

Turning to GAGTGAGTCTCAGTTAGTTTCGATTGATTCT [RAD5], in data set [6] (pH 5 8.75, pH 7 7.11, pH 8 6.81), the Ka (log10 Ka (M-1)) was found to be 8.03.

Consider GGAAAGGTTTTTGGAAAGGTTTTTCCTTTCC [RAD6], for which the Ka (log10 Ka (M-1)) in data set [6] (pH 5 8.50, pH 7 6.86, pH 8 6.74) is 7.96.

With GGAGGTGCTCCGAAAGGAACTCC [RAD30], the binding signal (% polarization change) in data set [1] amounted to 15.

Regarding GGTTGGTTTGGTTGG [RAD13 (TTT-aptamer)], the Ka (log10 Ka (M-1)) in data set [6] (pH 5 7.55, pH 7 6.46, pH 8 6.53) was determined as 6.96.

In turn, TCCCTTTCCCTTTCCCTTTCCC [RAD28] had a binding signal (% polarization change) in data set [1] of 22.

TCCTCTTCTTTTTCTTCTC [RAD24] displayed a binding signal (% polarization change) in data set [1] of 21.

Take TCCTTTCCTTTCCTTTCCT [RAD27]: the binding signal (% polarization change) in data set [1] was 22.

In the case of TCTCTCTCTCTCTCTCTCT [RAD26], the binding signal (% polarization change) in [1] came to 38.

Regarding TGGAGTCTGCGCGAGTCAGCGCTCAAGATC [RAD8], the Ka (log10 Ka (M-1)) in data set [6] (pH 5 8.41, pH 7 6.86, pH 8 6.84) stood at 7.85.

Sequence TGGGCCGGTAACGGATTACCGTAAGGTCCC [RAD11] gave a Ka (log10 Ka (M-1)) in data set [6] (pH 5 8.31, pH 7 6.85, pH 8 6.85) of 7.64.

In the case of TGGGCCGGTAACGGGTTACCGTAAGGTCCC [RAD10], the Ka (log10 Ka (M-1)) in [2] turned out to be 6.92; in [3] it was 6.43; in data set [4] it was 6.76; in data set [5], 5.92; in data set [6] (pH 5 8.41, pH 7 6.81, pH 8 6.72), 7.65; in data set [7] it was 7.53. The Ka (log10 Ka (M-1)) was determined as 7.04 in data set [8], 7.01 in [9] and 6.7 in data set [12]. For the same sequence, the Ka is 6.62 log10 M-1 in [10] and 7 log10 M-1 in data set [11].

Regarding TGGTTGGTTTTTGGAAGGATTTTTTCCTTCC [RAD3], the Ka (log10 Ka (M-1)) is 7.38 in [2]; 6.97 in data set [3]; 7.09 in [4]; 6.34 in [5]; 7.79 in data set [6] (pH 5 8.60, pH 7 6.86, pH 8 6.76); 7.69 in [7]. Moreover, the Ka (log10 Ka (M-1)) in [8] is 7.45; in [9] it was 7.36; in data set [12] it was 6.71. Besides, the Ka in data set [10] was 6.69 log10 M-1; in data set [11], 7.2 log10 M-1.

Sequence TTCCTTCCTTCCTTCCTTC [RAD25] showed a binding signal (% polarization change) in data set [1] of 22.

Turning to TTTGGTTGGTTTGGTTGG [RAD19], the Ka (log10 Ka (M-1)) in data set [6] (inosine at I positions [inosine at 4,14], pH 5 7.82, pH 7 6.50, pH 8 6.04) is 7.14.

With TTTTCGCGCGTACGCGCGCGAA [RAD15], the Ka (log10 Ka (M-1)) amounted to 6.23 in data set [2]; 5.33 in data set [3]; 6.21 in data set [4]; 7 in data set [6] (pH 5 7.65, pH 7 6.33, pH 8 6.19); 6.35 in data set [7]; 6.39 in data set [8]. The values for the Ka (log10 Ka (M-1)) in data set [9] and in data set [12] were 6.18 and 6.19, respectively. For the same sequence, the Ka was 6.22 log10 M-1 in data set [10] and 6.13 log10 M-1 in [11].

For the sequence TTTTCGCGCGTTAACGCGCGAA [RAD16], the Ka (log10 Ka (M-1)) was 6.46 in data set [2]; 6.23 in [3]; 6.11 in data set [4]; 7.8 in [6] (pH 5 8.22, pH 7 7.25, pH 8 6.79); 7.07 in [7]; 6.87 in [8]. Moreover, the results for the Ka (log10 Ka (M-1)) in data set [9] and in [12] were 6.11 and 6.26, respectively. Also, the Ka in data set [10] was 6.31 log10 M-1; in data set [11], 6.54 log10 M-1.

TTTTCGCGTGTGTGCGCGAA [RAD12] had a Ka (log10 Ka (M-1)) in [6] (pH 5 7.61, pH 7 6.37, pH 8 5.74) of 6.98.
